Reference: patent US6417168
Blank lines part the entries; values can stand above or below the substance they belong to.

Tests used:
[1] = target: human epidermal growth factor receptor (EGFR), full-length wild type (human) (UniProt P00533); experiment: cell-based or functional assay
[2] = target: ΔEGFR, extracellular-deleted mutant human EGFR (EGFRvIII) (human) (UniProt P00533); experiment: cell-based or functional assay

- EGF-induced down-regulation of cell surface EGFR (flow cytometry), maximum reduction [1]: 20 to 25%
Substance: N691stop (truncated rat cellular p185, stop codon for Thr^691) (from UniProt P06494 23-690) (receptor)

- EGF-induced down-regulation of cell surface EGFR (flow cytometry), maximum reduction [1]: 20 to 25%
Substance: N757 (Nneu K757M, ATP-binding mutant of rat cellular p185) (from UniProt P06494 23-1257) (receptor)

- phosphorylation content of immunoprecipitated p155ΔEGFR monomers (scanning densitometry, PY-20 blot) [2]: 33.7%
- soft agar growth of U87MG.ΔEGFR/T691s cells, reduction compared to U87MG.ΔEGFR cells [2]: 45%
- soft agar growth of U87MG.ΔEGFR/T691s cells, reduction compared to parental U87MG cells [2]: 41.3%
- apoptosis of U87/T691 cells, serum deprivation combined with radiation (DAPI) [1]: 33%
- inhibition of anchorage-independent growth in U87MG parental cells lacking ΔEGFR [1]: 75.2%
Substance: T691stop neu (truncated rat oncogenic p185neu, stop codon at amino acid 691, val→glu at amino acid 664) (from UniProt P06494 23-687) (receptor)

- co-downregulation of cellular p185 with EGFR upon EGF treatment (flow cytometry, M1 cells) [1]: 20%
Substance: wildtype cellular rat p185 (Nneu) (from UniProt P06494 23-1257) (receptor)
